How the values were obtained:
[1] = target: T1, hIL-18 receptor (hIL-18Rα and hIL-18Rβ) (human) (UniProt Q13478); assay: cell-based or functional assay
T1 sequence (looked up) 1: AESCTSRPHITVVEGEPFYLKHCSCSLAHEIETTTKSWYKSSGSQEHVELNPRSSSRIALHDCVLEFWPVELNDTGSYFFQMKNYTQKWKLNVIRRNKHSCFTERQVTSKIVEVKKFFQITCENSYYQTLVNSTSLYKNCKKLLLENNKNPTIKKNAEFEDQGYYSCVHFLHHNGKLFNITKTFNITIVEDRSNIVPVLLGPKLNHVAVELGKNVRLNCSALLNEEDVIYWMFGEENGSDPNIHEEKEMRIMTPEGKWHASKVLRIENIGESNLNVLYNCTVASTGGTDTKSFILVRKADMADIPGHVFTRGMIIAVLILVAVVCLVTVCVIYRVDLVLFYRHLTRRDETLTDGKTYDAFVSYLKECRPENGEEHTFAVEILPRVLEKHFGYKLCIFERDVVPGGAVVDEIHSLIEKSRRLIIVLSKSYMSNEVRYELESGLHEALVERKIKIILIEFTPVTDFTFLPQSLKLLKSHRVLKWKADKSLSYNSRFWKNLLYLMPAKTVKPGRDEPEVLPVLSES
T1 sequence (looked up) 2: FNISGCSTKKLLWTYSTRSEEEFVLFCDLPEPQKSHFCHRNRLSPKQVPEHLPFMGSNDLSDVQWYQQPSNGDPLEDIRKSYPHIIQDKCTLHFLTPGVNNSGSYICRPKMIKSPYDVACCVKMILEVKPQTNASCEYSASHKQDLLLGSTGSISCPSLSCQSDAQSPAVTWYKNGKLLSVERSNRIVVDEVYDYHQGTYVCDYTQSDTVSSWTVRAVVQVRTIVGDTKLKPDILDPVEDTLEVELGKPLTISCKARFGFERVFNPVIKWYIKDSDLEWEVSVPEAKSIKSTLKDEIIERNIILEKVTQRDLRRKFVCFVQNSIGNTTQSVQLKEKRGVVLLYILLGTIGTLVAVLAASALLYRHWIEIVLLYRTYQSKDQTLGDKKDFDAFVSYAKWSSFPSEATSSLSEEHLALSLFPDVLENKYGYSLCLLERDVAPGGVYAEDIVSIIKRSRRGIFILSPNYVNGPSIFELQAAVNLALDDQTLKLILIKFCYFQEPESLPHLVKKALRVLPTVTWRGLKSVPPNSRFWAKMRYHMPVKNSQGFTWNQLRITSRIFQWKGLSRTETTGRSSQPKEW

[2] = target: hIL-18BP-hFc (human) (UniProt O95998); assay: cell-based or functional assay
hIL-18BP-hFc (human), sequence (O95998 31-194 limits assumed): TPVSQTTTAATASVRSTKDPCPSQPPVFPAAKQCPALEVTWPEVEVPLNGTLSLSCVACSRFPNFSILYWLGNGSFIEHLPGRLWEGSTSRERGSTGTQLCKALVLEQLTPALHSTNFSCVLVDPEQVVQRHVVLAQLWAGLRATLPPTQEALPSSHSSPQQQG

wild-type human IL-18, sequence (Q14116 37-193 limits assumed): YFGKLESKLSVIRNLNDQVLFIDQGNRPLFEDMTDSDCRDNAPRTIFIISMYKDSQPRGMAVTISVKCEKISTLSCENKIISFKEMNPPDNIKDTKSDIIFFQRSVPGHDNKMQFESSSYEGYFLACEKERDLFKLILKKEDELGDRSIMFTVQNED

wild-type human IL-18 (from UniProt Q14116 37-193) (ligand)
EC50 (nM), PBMC assay (hIFNγ release) [1]: 0.17 nM | EC50 (nM), in vitro IL-18 Receptor Mediated Signaling Assay [1]: 0.066 nM | EC50 (nM) + 1 µg/ml hIL-18BP-hFc, in vitro IL-18 Receptor Mediated Signaling Assay [2]: 8.2 nM | EC50 (nM) in the Presence of 1 µg/mL hIL-18BP-hFc, PBMC assay (hIFNγ release) [2]: 5.9 nM | EC50 Fold Change (+BP/-BP), PBMC assay (hIFNγ release) [2]: 34.7 fold | EC50 Fold Change (+BP/-BP), hIL-18 reporter assay [2]: 83.3 fold

— patent US20260092093A1
